Experiment: soluble on expression in E. coli; label from the status in PepcDB or PDB records
In the case of “MSLKSTDIKIVEAKFSTEEVPFRTPLKFGGRVMDSSVLLNVEVIVETRNGKQGIGIGSMPAGNIWAWPSAVVSPEDSLKAMIEFLKEAVEIANICPEVAHPIDLMYHISAEYHFMAKKLSKRLGLAEEIPELAQLVASSPLDAAIHDGFGRANHINSYNGLSAEYMSHDLTEYLDDQFKGEYLDQYTLRDPKPTLPLYHLVGALDPITEADISERVDDGLPETLGEWIKADGLTHLKIKLSGDNMDWDISRVIAVENEAVKAQGERGQDKWVYSLDFNEKCENVDYVLDFLNKIREQTPAAFDRVQYIEQPTNRDLKANPENKMHEAAKIKPVVIDESLVDYESLLLSRELGYSGVALKACKGQTESLFLGAAAQKFDMFLCVQDLTCCGYSFLHSASLAARIPSIAAIEGNGRQYCPGPNKKWKRSYPGMFNITDGTVKTSELNGDGLGFEGHHHHHH”, the “soluble on expression in E. coli” value is reported as “soluble”.
With “MDRADLRIAVLMGTKDGAPFIDEQLQSLLAQSHPLIDLWISDDGSVDGTVPIIEAWKSRWTKGRVTLVQGPREGFAANFRSMILDRRIDADFYAFSDQDDVWEPDRLESAVQWMQAFGAEPPLMFCSRTATMTETGSLAGHSPLFRRPPSFRNALVQSIAGGNTILLNRAARDLLARASARTGFVSHDWWAYLVVTGAGGVVHYDPRPLVRYRQHAANLVGANVSWAARVSRLGRLFKGEFADWTDLNLAGLAVNRDLLTPDAATCLDLFASGRQGSLFQRLRTLLVSGVYRQTLAGTLGLYLAFVLGRILEHHHHHH” the “soluble on expression in E. coli” value was “not soluble”.
For “GMGYTLAEFLAHAIALETEAAERYVELADMMEAHNNLDTATVFRDMARFSTLHGDEIKQRSRALELPKLMSWQYRWKTPPEVGDENDIHYLMTPYHALRYARDNEIRGMEYYKEAAANSADPEVKRLGADFAAEEAEHVVALDKWIEKTPRPSITWSEDADPAQCVD”, the “soluble on expression in E. coli” value was “soluble”.
For “MGSDKIHHHHHHATSKHVYGENENPYLKTNADAVVSTKAEFPISRLEAKTVKLTDYAEKFHTYLGMTVDETLAALSNGSVVFYPINISKNCWNRTAPTKGTNGWYYNTAGGVCDAASGIASIELDATKKELVLNVLETASVGTAISINVGFAINNGANFDDYVRFAFDVTVTDPGRIVVANTIPAGDYSAFSIEFADYQEVIESCLGLTLSEFITACKEPGGPIALYMVDSESGEWNTTSDYTAGGSGIGYWLTSNLKVTNWSDDGSTGSVLFVETQENGDMVNIGRNPASTSGSVFNVNFVYALKEDNSKFVEFIVKATLE”, the “soluble on expression in E. coli” value was “not soluble”.
For “MTNSNRRKFLKATGVGLLGGLAGCTRGGDSSGGDGSDGSSDGSDGSGGSDGGTSTSGSDGELAIPLSEYEDADIDWRQFEGSSINIGAVQHPWVSAIKPAVPVFEELTGIDVVWNVLPEQQFRTKRQTDVSTGAGQFDVFYMDQVVNQFREEGWIQPLDPFFDDDSLFDEDWYEPDDLFEASRWQAHGGGYSDTWTGMPITVEVQTQFYRKDLYDKHDLEVAETLEQFRQNAQTIHENESDVVGTVGRGDKGYGMNIYILNTFLREFGTSLWTEFPTDSGLDSDGVINAAEWYVSLLQDYGPEGASTQTWSDVLSTMQEGRAGHIVSDANLFWPGLTGSDSSVADNIGIAKAPSPADGQFSPNAFNWQISTSKNAQNSEQAFLFMVWASSQPTNTWMHVEGDAAFSVRQSVWENDEFRSRVGENFAQVTLESLQEAAPDPFDRKYPQWGQRYSEELQRAIAGQKSAEEAMTKAASVAEDIYSN”, the “soluble on expression in E. coli” value was “not soluble”.
In the case of “MVDKREEVMHVAMFPWLAMGHLLPFLRLSKLLAQKGHKISFISTPRNIERLPKLQSNLASSITFVSFPLPPISGLPPSSESSMDVPYNKQQSLKAAFDLLQPPLKEFLRRSSPDWIIYDYASHWLPSIAAELGISKAFFSLFNAATLCFMGPSSSLIEEIRSTPEDFTVVPPWVPFKSNIVFRYHEVTRYVEKTEEDVTGVSDSVRFGYSIDESDAVFVRSCPEFEPEWFGLLKDLYRKPVFPIGFLPPVIEDDDAVDTTWVRIKKWLDKQRLNSVVYVSLGTEASLRHEEVTELALGLEKSETPFFWVLRNEPKIPDGFKTRVKGRGMVHVGWVPQVKILSHESVGGFLTHCGWNSVVEGLGFGKVPIFFPVLNEQGLNTRLLHGKGLGVEVSRDERDGSFDSDSVADSIRLVMIDDAGEEIRAKAKVMKDLFGNMDENIRYVDELVRFMRSKGSSSSS”, the “soluble on expression in E. coli” value is reported as “not soluble”.
With “MQITEALISEPGEIRRFVQQAVDHWPNLLAFHFTLYSAEGIYGQQIQTFCSSFHRRVHERITEHNHTVSPSAPVVLRWLREQHEGAQIRCLLLLSQTSICHPRVGVMADEECAQLVDLLQQTWSVISAGGQCRVERCFRVARPGSSGQYVALKTAVQSFMSQVIATIIR” the “soluble on expression in E. coli” value was “not soluble”.
In the case of “MHHHHHHSSGVDLGTENLYFQSMSAQNNAKVAVLGASGGIGQPLSLLLKNSPLVSRLTLYDIAHTPGVAADLSHIETKAAVKGYLGPEQLPDCLKGCDVVVIPAGVPRKPGMTRDDLFNTNATIVATLTAACAQHCPEAMICVIANPVNSTIPITAEVFKKHGVYNPNKIFGVTTLDIVRANTFVAELKGLDPARVNVPVIGGHAGKTIIPLISQCTPKVDFPQDQLTALTGRIQEAGTEVVKAKAGAGSATLSMAYAGARFVFSLVDAMNGKEGVVECSFVKSQETECTYFSTPLLLGKKGIEKNLGIGKVSSFEEKMISDAIPELKASIKKGEDFVKTLK”, the “soluble on expression in E. coli” value is reported as “soluble”.
In the case of “MGSDKIHHHHHHMGSKKLTVGSDSHRLSKSSFSSNKSSHSATKDQPIDTDDIDEDDESGHNIILNIISQLRPGCDLTRITLPTFILEKKSMLERVTNQLQFPEFLLQAHSEKDPLKRFLYVMKWYLAGWHIAPKAVKKPLNPVLGEYFTAYWDLPNKQQAYYISEQTSHHPPECAYFYMIPESSIRVDGVVIPKSRFLGNSSAAMMDGSTVLQFLDIKDGNGKPEKYVLTQPNVYVRGILFGKMRIELGDHMIIKSPNFQADIEFKTKGYVFGTYDAIEGTVKDYDGNAYYEISGKWNDVMYLKDLKQPRSSPKVFLDTHKESPLRPKVRPLSEQGEYESRKLWKKVTDALAVRNHPVATEEKFQIEDHQRQLAKKRIEDGVEFHPKLFRRSKPGEDLDYCIYKNIPVDEDPEKQIRSILQIAPILPGQQFTDKFFIPAFEKIKSQKKMIENEKQNPAKQ”, the “soluble on expression in E. coli” value is reported as “not soluble”.
In the case of “MGSDKIHHHHHHMNNLPLLDNNWNTDLYEDKHAFVWQYGENLLKVLNPKLGESILDLGCGTGQLTEKIAQAGAEVTGIDRASSMIETARQNYPHLRFDVADARDFQVLKPLDAVFSNAVLHWIKEADAAIASIHQALKPGGRFVAEFGGKGNIQAIVTALYSALEAIAISPQALNPWYFPSIGEYATLLEQQGFDVTYATLFARPTPLTEGEAGMANWLEMFADVFLAGLSADQKIQIIRTVEEHLLPTLYQQGNWTADYRRIRIVAIKL”, the “soluble on expression in E. coli” value is reported as “not soluble”.
In the case of “MGSDKIHHHHHHMYSDQTYEVIKNRTLENINLDIYKGEGSFLNNMVSGNNLELSKIYLELSKMHKMAFIQDTYNQFLDKRVNEFGVYRKLGTESNGEVEFIGEKGTVINNGTIISYRDLLFVVIKDVTIGSEEGDNSPVQALEVGKKYNLPTNCEFKLVDNISGVTKITNTRSFEGGTDIETDEELKERFYKIQRNQATSGNKAHYEEWALEVDGVYNVKVYPRWDGPGTVKVLIFGKNNQAVDTETIERCQQHIDEEKPIGPTITVVTPLPIEISISAVMKLEDGYTLDNVKESFLESINTYFRDIRGEIIYTKVMGILINTTGVHDLSNLLINGSTDNITINEDKIPSVTTVNFSEVENQ”, the “soluble on expression in E. coli” value is reported as “not soluble”.
With “MGHHHHHHSHMSRRKQGKPQHLSKREFSPEPLEAILTDDEPDHGPLGAPEGDHDLLTCGQCQMNFPLGDILIFIEHKRKQCNGSLCLEKAVDKPPSPSPIEMKKASNPVEVGIQVTPEDDDCLSTSSRRICPKQEHIADKLLHWRGLSSPRSAHGALIPTPGMSAEYAPQGICKDEPSSYTCTTCKQPFTSAWFLLQHAQNTHGLRIYLESEHGSPLTPRVLHTPPFGVVPRELKMCGSFRMEAREPLSSEKI” the “soluble on expression in E. coli” value was “not soluble”.
With “MGSDKIHHHHHHMVQTPSKPITLDEFLKLPETEPASEYIEGKIIQKPMPQGKHSAIQSECVSVINSVVKPQRIARAFLELRCTFGDHSTVPDISVFIWSRIPREENGEIANIFLIAPDWTIEILSPDQSQTKVTKNILHCLKHGTQMGWLIDPDEQTVFVYRPQQETEVFDEPDALVPVPSFASELHLSIKDLFSWLL” the “soluble on expression in E. coli” value was “not soluble”.
For “QLPPGTFIPYGLSLESATGVNFLTPTSFWKQTRMHASKRKLLRNMELLIIDEVSMLRADTLDLIDFVLRRVRSNPRSFGGVQVLFIGDLMQLPPVVKPHEWE”, the “soluble on expression in E. coli” value was “not soluble”.
With “MSLKCETERSKTWNNFGNGIPCVLGIDEAGRGPVLGPMVYAAAISPLDQNVELKNLGVDDSKALNEAKREEIFNKMNEDEDIQQIIAYALRCLSPELISCSMLKRQKYSLNEVSHEAAITLIRDALACNVNVVEIKVDTVGPKATYQAKLEKLFPGISICVTEKADSLFPIVSAASIAAKVTRDSRLRNWQFREKNIKVPDAGYGSGYPGDPNTKKFLQLSVEPVFGFCSLVRSSWKTASTIVEKRCVPGSWEDDEEEGKSQSKRMTSWMVPKNETEVVPKRNVYFKERHMSNILTF” the “soluble on expression in E. coli” value was “not soluble”.
In the case of “MRAPLSTYRRPQRTDFVTPTGGPFFAKQDKALNTIDLKMAHDLKLRGYRVKVAVVDEGVRSDHPLLNVEKKYGGDYMADGTRTYPDPKRQGRHGTSVALVLAGQDTDTYRGGVAPNADLYSANIGTRAGHVSDEAAFHAWNDLLGHGIKIFNNSFATEGPEGEQRVKEDRNEYHSAANKQNTYIGRLDRLVRDGALLIFAAGNGRPSGRAYSEVGSVGRTPRVEPHLQRGLIVVTAVDENGRLETWANRCGQAQQWCLAAPSTAYLPGLDKDNPDSIHVEQGTSLSAPLVTGAAVLVQDRFRWMDNDNLRTTLLTTAQDKGPYGVDPQYGWGVLDVGRAVQGPAQFAFGDFVARVTDTSTFGLEHHHHHH”, the “soluble on expression in E. coli” value is reported as “not soluble”.
In the case of “MLFDLDGTVWEGGRALPFAVDSINQVNLPLMYVTNNASRGPEVVASLLSDMGIFTQPEQVLTSAQAAIDLALKEVPVGSNVLVLGTDSFKSLAAEAGYMVVNSADMEPVAVFHGHNPATSWTELSEAALAIRCGAKYYASNLDTTLPSERGLCVGNGSMVAAVVSATGVQPVSAGKPEAAMFHVAAEKLASERPLAVGDRLNTDIAGGVAAGFDTLHLLTGVSQHWALVHAIESERPTLIAEDLRALSSDRSVLMPQLQGDFNAYLQGTEIVLNGGSTASTSTEALRSVLSVAWQSAEFGGTVKPVSEHAIRCMSEWR”, the “soluble on expression in E. coli” value is reported as “not soluble”.
In the case of “PVDFNGYWKMLSNENFEEYLRALDVNVALRKIANLLKPDKEIVQDGDHMIIRTLSTFRNYIMDFQVGKEFEEDLTGIDDRKCMTTVSWDGDKLQCVQKGEKEGRGWTQWIEGDELHLEMRAEGVTCKQVFKKVH”, the “soluble on expression in E. coli” value is reported as “soluble”.
For “MGSDKIHHHHHHMNNKEIFEELATLARQPAIWFAARSFYGHGGNQRPDNSRRLLRVLAETDNNLTAGAIADILAIRPASVTQIIKKLENDEYIQRVRDESDARVVRVKITSKGRKQLELLEDKQSDFQTELFDVFDDDERQRFGESLRKLNEHVMSDEYLDNMRSKMDKHMRFGFDHFVNVSNARKFHENQTGYLKKMRQHQQQSPFNDEDNEGI”, the “soluble on expression in E. coli” value was “not soluble”.
